Substrate in this data set: C[C@@H](O)C(=O)O
Nature of the data set: TP_TRANSPORTER: uptake in Xenopus laevis oocytes. The format is functional, cell-based. Conditions: Oocyte.

Results on 1 protein are retold here after ChEMBL document CHEMBL2074141, “Comparison of lactate transport in astroglial cells and monocarboxylate transporter 1 (MCT 1) expressing Xenopus laevis oocytes. Expression of two different monocarboxylate transporters in astroglial cells and neurons” (J Biol Chem, 1997).

B1: Monocarboxylate transporter 1 (Rattus norvegicus), P53987 (protein)
chain: MPPAIGGPVGYTPPDGGWGWAVVVGAFISIGFSYAFPKSITVFFKEIEIIFSATTSEVSWISSIMLAVMYAGGPISSILVNKYGSRPVMIAGGCLSGCGLIAASFCNTVQELYFCIGVIGGLGLAFNLNPALTMIGKYFYKKRPLANGLAMAGSPVFLSTLAPLNQAFFGIFGWRGSFLILGGLLLNCCVAGSLMRPIGPQQGKVEKLKSKESLQEAGKSDANTDLIGGSPKGEKLSVFQTVNKFLDLSLFTHRGFLLYLSGNVVMFFGLFTPLVFLSNYGKSKHFSSEKSAFLLSILAFVDMVARPSMGLAANTRWIRPRVQYFFAASVVANGVCHLLAPLSTTYVGFCIYAGVFGFAFGWLSSVLFETLMDLVGPQRFSSAVGLVTIVECCPVLLGPPLLGRLNDMYGDYKYTYWACGVILIIAGLYLFIGMGINYRLVAKEQKAEEKKRDGKEDETSTDVDEKPKKTMKETQSPAPLQNSSGDPAEEESPV
The Km is the substrate concentration at which the rate is half of its maximum. For B1, the Km was determined as 5.6 mM.
